In patent US20020168748:

T1: peptide RVKEKKEKKKKCVVL (C-terminus of CaRho1)
T1 chain: RVKEKKEKKKKCVVL

T2: peptide LQARRGKKKSGCLVL (C-terminus of huRhoA)
T2 chain: LQARRGKKKSGCLVL

T3: peptide GKKKKKKSKTKCVIM (C-terminus of K-ras4B)
T3 chain: GKKKKKKSKTKCVIM

T4: CaRho1 (Candida Rho1-like GTPase)
T4 chain: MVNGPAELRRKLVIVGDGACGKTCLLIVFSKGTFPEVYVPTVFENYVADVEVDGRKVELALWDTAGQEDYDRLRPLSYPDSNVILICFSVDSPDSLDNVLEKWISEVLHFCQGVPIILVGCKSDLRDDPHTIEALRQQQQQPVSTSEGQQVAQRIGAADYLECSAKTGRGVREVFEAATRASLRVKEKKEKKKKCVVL

T5: peptide GCVLL
T5 chain: GCVLL


Tests used:
[1] = molecular target: T1, peptide RVKEKKEKKKKCVVL (C-terminus of …)
[2] = molecular target: T2, peptide LQARRGKKKSGCLVL (C-terminus of …)
[3] = molecular target: T3, peptide GKKKKKKSKTKCVIM (C-terminus of …)
[4] = molecular target: H-RasCVLL, P01112
[5] = molecular target: human RhoA, P61586
[6] = molecular target: T4, CaRho1 (Candida Rho1-like GTPase)
[7] = molecular target: T5, peptide GCVLL
[8] = molecular target: 1,3-β-glucan synthase (GS) complex, P38631
Chain of 1,3-β-glucan synthase (GS) complex, P38631 (P38631 whole entry, looked up, one chain of several): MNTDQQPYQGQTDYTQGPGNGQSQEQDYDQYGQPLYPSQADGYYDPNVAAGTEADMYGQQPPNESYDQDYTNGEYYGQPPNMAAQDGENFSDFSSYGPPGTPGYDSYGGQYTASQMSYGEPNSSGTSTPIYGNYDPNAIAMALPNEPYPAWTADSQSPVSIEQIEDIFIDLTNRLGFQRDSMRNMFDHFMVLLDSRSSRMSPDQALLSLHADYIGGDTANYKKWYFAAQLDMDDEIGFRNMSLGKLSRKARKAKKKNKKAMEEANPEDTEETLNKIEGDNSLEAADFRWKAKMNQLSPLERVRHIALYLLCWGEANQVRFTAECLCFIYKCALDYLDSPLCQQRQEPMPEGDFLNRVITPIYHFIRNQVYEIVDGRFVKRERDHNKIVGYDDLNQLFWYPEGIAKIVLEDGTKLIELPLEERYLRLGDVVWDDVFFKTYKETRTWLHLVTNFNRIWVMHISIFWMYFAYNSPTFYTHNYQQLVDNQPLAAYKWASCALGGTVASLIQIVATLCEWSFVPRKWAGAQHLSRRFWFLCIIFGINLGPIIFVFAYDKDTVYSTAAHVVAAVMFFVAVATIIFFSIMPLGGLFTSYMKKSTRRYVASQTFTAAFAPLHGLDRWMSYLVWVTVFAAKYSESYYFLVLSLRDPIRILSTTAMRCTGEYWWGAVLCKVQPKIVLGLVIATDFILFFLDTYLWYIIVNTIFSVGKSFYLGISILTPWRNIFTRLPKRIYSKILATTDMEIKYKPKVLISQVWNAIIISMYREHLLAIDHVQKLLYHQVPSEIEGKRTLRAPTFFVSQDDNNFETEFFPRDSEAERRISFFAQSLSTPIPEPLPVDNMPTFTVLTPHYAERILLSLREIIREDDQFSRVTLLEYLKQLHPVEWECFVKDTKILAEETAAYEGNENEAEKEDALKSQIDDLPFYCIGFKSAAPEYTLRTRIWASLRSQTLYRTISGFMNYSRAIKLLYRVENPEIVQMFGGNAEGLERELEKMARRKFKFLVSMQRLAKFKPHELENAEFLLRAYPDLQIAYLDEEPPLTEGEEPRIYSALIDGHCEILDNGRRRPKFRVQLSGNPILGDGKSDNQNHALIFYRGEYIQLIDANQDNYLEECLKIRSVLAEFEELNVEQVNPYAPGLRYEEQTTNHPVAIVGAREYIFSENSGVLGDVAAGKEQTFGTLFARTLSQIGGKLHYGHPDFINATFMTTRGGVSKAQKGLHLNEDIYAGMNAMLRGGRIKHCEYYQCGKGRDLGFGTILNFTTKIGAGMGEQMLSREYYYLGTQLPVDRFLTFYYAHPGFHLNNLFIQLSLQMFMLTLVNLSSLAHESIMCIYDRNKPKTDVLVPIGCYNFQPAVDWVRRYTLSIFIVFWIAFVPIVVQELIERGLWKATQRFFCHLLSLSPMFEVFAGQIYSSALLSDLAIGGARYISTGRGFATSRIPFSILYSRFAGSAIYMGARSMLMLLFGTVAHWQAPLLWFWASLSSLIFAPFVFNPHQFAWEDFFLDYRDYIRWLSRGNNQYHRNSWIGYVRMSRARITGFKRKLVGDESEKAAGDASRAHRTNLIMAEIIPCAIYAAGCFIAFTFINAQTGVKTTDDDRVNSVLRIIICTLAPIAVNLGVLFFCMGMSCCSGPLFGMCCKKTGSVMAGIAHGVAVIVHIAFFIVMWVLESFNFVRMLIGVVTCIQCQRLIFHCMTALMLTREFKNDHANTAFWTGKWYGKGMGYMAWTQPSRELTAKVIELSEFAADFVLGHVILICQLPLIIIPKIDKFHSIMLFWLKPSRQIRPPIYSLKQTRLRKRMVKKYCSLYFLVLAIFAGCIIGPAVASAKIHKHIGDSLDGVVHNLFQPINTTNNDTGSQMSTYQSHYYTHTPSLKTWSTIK

Chain of H-RasCVLL, P01112 (P01112 whole entry, looked up): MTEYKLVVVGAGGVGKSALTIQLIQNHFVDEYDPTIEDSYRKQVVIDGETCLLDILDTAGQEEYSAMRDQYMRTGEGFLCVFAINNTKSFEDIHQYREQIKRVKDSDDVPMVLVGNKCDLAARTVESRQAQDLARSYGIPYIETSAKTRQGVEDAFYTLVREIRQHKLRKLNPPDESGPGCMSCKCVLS
Chain of human RhoA, P61586 (P61586 whole entry): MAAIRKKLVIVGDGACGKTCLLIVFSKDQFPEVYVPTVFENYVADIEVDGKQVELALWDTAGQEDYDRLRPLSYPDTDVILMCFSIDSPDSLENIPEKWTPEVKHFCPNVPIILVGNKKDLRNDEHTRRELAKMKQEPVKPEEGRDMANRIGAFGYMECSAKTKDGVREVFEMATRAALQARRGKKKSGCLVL

| Protein | prenylation of the peptide [1] | prenylation of the peptide [2] | prenylation of the peptide [3] | Km [4] | Km [5] | Km [6] [µM] | prenylation of the peptide [7] | GS activity in rho1-3 membrane fractions at 37° C. [8] | GS activity in rho1-3 membranes complemented with GST-Rho1 [8] |
| --- | --- | --- | --- | --- | --- | --- | --- | --- | --- |
| S. cerevisiae GGTase (ScGGTase) (protein) chain 1: MEEYDYSDVKPLPIETDLQDELCRIMYTEDYKRLMGLARALISLNELSPRALQLTAEIIDVAPAFYTIWNYRFNIVRHMMSESEDTVLYLNKELDWLDEVTLNNPKNYQIWSYRQSLLKLHPSPSFKRELPILKLMIDDDSKNYHVWSYRKWCCLFFSDFQHELAYASDLIETDIYNNSAWTHRMFYWVNAKDVISKVELADELQFIMDKIQLVPQNISPWTYLRGFQELFHDRLQWDSKVVDFATTFIGDVLSLPIGSPEDLPEIESSYALEFLAYHWGADPCTRDNAVKAYSLLAIKYDPIRKNLWHHKINNLN chain 2: MCQATNGPSRVVTKKHRKFFERHLQLLPSSHQGHDVNRMAIIFYSISGLSIFDVNVSAKYGDHLGWMRKHYIKTVLDDTENTVISGFVGSLVMNIPHATTINLPNTLFALLSMIMLRDYEYFETILDKRSLARFVSKCQRPDRGSFVSCLDYKTNCGSSVDSDDLRFCYIAVAILYICGCRSKEDFDEYIDTEKLLGYIMSQQCYNGAFGAHNEPHSGYTSCALSTLALLSSLEKLSDKFKEDTITWLLHRQVSSHGCMKFESELNASYDQSDDGGFQGRENKFADTCYAFWCLNSLHLLTKDWKMLCQTELVTNYLLDRTQKTLTGGFSKNDEEDADLYHSCLGSAALALIEGKFNGELCIPQEIFNDFSKRCCF | + | + | + | NS | < 100 µM | 80 | Human GGTase can prenylate peptides that lack the polylysine region, whereas the fungal GGTases can not | – | – |
| Recombinant glutathione-S-transferase (GST)-Rho1, preloaded with GTPγS (protein) MSQQVGNSIRRKLVIVGDGACGKTCLLIVFSKGQFPEVYVPTVFENYVADVEVDGRRVELALWDTAGQEDYDRLRPLSYPDSNVVLICFSIDLPDSLENVQEKWIAEVLHFCQGVPIILVGCKVDLRNDPQTIEQLRQEGQQPVTSQEGQSVADQIGATGYYECSAKTGYGVREVFEAATRASLMGKSKTNGKAKKNTTEKKKKKCVLL | – | – | – | – | – | – | – | GS activity was restored fully by the addition of GTPγS-bound GST-Rho1 | – |
| Recombinant glutathione-S-transferase (GST)-Rho1, preloaded with GDP (protein) MSQQVGNSIRRKLVIVGDGACGKTCLLIVFSKGQFPEVYVPTVFENYVADVEVDGRRVELALWDTAGQEDYDRLRPLSYPDSNVVLICFSIDLPDSLENVQEKWIAEVLHFCQGVPIILVGCKVDLRNDPQTIEQLRQEGQQPVTSQEGQSVADQIGATGYYECSAKTGYGVREVFEAATRASLMGKSKTNGKAKKNTTEKKKKKCVLL | – | – | – | – | – | – | – | – | GTPγS could be replaced with GTP, but not GDP |
| Candida GGTase (CaGGTase), geranylgeranyl protein transferase I purified from Candida cells (protein) chain 1: MTDSKYDYSDITPVDINTEEPQICQILYDEDYKQIMGLLLALMKAEEYSERALHITELGINELASHYTIWIYRFNILKNLPNRNLYDELDWCEEIALDNEKNYQIWNYRQLIIGRIMELNNNDFDPYREFLILEAMLSSDPKNHHVWSYRKWLVDTFDLHNDAKELSFVDKVIDTDLKNNSAWSHRFFLLFSKKHLATDNTIDEELNYVKDKIVKCPQNPSTWNYLLGIHERFDRSITQLEEFSLQFVDLEKDQVTSSFALETLAKIYTQQKKYNEARTVYDLLKSKYDPIRSNFWDYQISKLTSV chain 2: MNQLLINKHEKFFNRCLIGLPSTAQSEDSNKLAIIYFCLHGLQLIQKFQFTNQELIYYRNFIINQFMIENNQIISFRSTHYFQKTNQKYDCPNLSSTLFALYNLLILKSPYHTIINRKKIMNFLCKCQVKDGINKGGFVPTLYYDEENGDYKQYGEPDLRVCYMALLIRHLMKYDDNNNNNNREDSNETDIDLISLQQFILDRININGGFSSTIMDESHLGFTFCAIASLKLLNYPLEKLKSTKEWLIHRQVDYPENLYPKDGNGDNYEYYRNIDIGGFNGRENKLSDTCYSWWCTGSLYNIDVNFIKLVDLNKAEDYLLNKTQNQLFGGFGRDPDSTPDPMHSYLALASLSLWNHEKFALQEINPILTITKELYQFFKEEIKY | + | – | + | NS* | NS | 250 | – | – | – |
